Reference: US7579150B1, “Mobile RNA acts as a signal to regulate plant growth and development” (Iowa State University Research Foundation, Inc., priority 2004, dated 2009)

System: POTH1
Assay: Yeast two-hybrid interaction with POTH1 (nutritional selection, beta-galactosidase)
Type: cell-based, potato
Settings: yeast strain AH109, nutritional markers and lacZ
Excerpt: The Matchmaker two-hybrid system (Clontech, CA) was used for the yeast two-hybrid screen. Yeast transformation and plasmid rescue into DH5-a E. coli cells were according to the manufacturer's instructions. Full-length POTH1 was cloned into the pBridge (Clontech, CA) vector and used as bait to screen the potato (S. tuberosum ‘Desireé’) stolon cDNA library in pAD-GAL4-2.1 (Stratagene, Calif.). Positive interactions were confirmed by cotransforming yeast strain AH109 with each purified pAD plasmid and pBridge: POTH1 and plating on -leucine/-tryptophan (transformation control) and -leucine/-tryptophan/-histidine/-adenine (selection) nutrient medium. Induction of the AH109 reporter gene, lacZ, was measured with a yeast β-galactosidase assay kit (Pierce Chemicals). β-galactosidase activity (FIG. 9B) was determined from a known density of yeast cells and calculated as 1000×OD420/time of color reaction (minutes)×volume of yeast culture (ml)×OD600.
The StBEL-05 deletion constructs were amplified by PCR, then cloned into the vector, pGAD, in-frame with the GAL4 activation domain. POTH1 deletion constructs were amplified by PCR, and cloned into pBridge (Clontech) in-frame with the GAL4 binding domain. Sequencing of selected cDNAs and constructs was performed at the Iowa State University DNA Facility. For deletion analysis, modified constructs of POTH1 were cloned into the pBridge vector for fusion with the DNA-binding domain of GAL4 (FIG. 10A). For StBEL-05, constructs were cloned into the pGAD vector for fusion with the activating domain of GAL4 (FIG. 10B). Deletion constructs were made from both the amino and carboxy termini. These mutants were then tested for interaction in the yeast two-hybrid system by cotransforming into yeast strain AH109 with the corresponding full-length partner (StBEL-05 in pGAL4 or POTH1 in pBridge). All constructs were sequenced to verify that they were in-frame. Positive interactions were verified for lacZ induction by using a β-galactosidase assay (Pierce Chemical Company). For POTH1, seven deletion constructs were tested (FIG. 10A). For the BEL TFs, a fusion construct of StBEL-05 (653 aa of StBEL-05 sequence) and nine deletion constructs were tested (FIG. 10B).

Sequence of POTH1 (as listed by the source): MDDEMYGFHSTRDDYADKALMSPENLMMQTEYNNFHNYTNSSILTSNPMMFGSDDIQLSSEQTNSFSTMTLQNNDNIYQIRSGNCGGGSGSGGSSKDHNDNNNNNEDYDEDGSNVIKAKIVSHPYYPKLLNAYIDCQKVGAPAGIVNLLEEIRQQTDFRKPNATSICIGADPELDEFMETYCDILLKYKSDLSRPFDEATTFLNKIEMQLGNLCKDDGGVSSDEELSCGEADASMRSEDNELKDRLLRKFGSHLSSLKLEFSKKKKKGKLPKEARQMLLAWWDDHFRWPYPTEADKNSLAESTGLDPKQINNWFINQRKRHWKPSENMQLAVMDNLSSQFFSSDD

Molecule	interaction with POTH1
StBEL-13: BEL transcription factor from Solanum tuberosum, SEQ ID NO:6 (protein, listed as Solanum tuberosum) MVMGGGASSQQLGYAKNHTPNVAESMQLFLMNPQPRSPSPSPPNSTSSTLHMLLPNPSSTSTLQGFPNPAEGSFGQFITWGNGGASAATATHHLNAQNEIGGVNVVESQGLSLSLSSSLQHKAEELQMSGEAGGMMFFNQGGSSTSGQYRYKNLNMGGSGVSPNIHQVHVGYGSSLGVVNVLRNSKYAKAAQELLEEFCSVGRGKLKKTNNKAAANNPNTNPSGANNEASSKDVPTLSAADRIEHQRRKVKLLSMVDEVDRRYNHYCEQMQMVVNSFDLVMGFGTAVPYTALAQKAMSRHFRCLKDAIGAQLKQSCELLGEKDAGNSGLTKGETPRLKMLEQSLRQQRAFHQMGMMEQEAWRPQRGLPERSVNILRAWLFEHFLHPYPSDADKHLLARQTGLSRNQVSNWFINARVRLWKPMVEDMYQQEAKDEDGDGDEKSQSQNSGNNIIAQTPTPNSLTNTSSTNMTTTTAPTTTTALAAAETGTAATPITVTSSKRSQINATDSDPSLVAINSFSENQATFPTNIHDPDDCRRGNLSGDDGTTTHDHMGSTMIRFGTTAGDVSLTLGLRHAGNLPENTHFFG	showed selective interaction
StBEL-30: BEL transcription factor from Solanum tuberosum, SEQ ID NO:14 (protein, listed as Solanum tuberosum) MATYFPSPNNQRDADQTFQYFRQSLPESYSEASNAPENMMVFMNYSSSGAYSDMLTGTSQQQHNCIDIPSIGATPFNTSQQEILSNLGGSQMGIQDFSSWRDSRNEMLADNVFQVAQNVQGQGLSLSLGSNIPSGIGISHVQSQNPNQGGGFNMSFGDGDNSQPKEQRNADYFPPDNPGRDLDAMKGYNSPYGTSSIARTIPSSKYLKAAQYLLDEVVSVRKAIKEQNSKKELTKDSRESDVDSKNISSDTPANGGSNPHESKNNQSELSPTEKQEVQNKLAKLLSMLDEIDRRYRQYYHQMQIVVSSFDVVAGEGAAKPYTALALQTISRHFRCLRDAICDQIRASRRSLGEQDASENSKAIGISRLRFVDHHIRQQRALQQLGMMQQHAWRPQRGLPESSVSVLRAWLFEHFLHPYPKDSDKIMLARQTGLTRSQVSNWFINARVRLWKPMVEEMYKEEAGDAKIDSNSSSDVAPRLATKDSKVEERGELHQNAASEFEQYNSGQILESKSNHEADVEMEGASNAETQSQSGMENQTGEPLPAMDNCTLFQDAFVQSNDRFSEFGSFGSGNVLPNGVSLTLGLQQGEGSNLPMSIETHVSYVPLRADDMYSTAPTTMVPETAEFNCLDSGNRQQPFWLLPSAT	showed selective interaction
StBEL-11: BEL transcription factor from Solanum tuberosum, SEQ ID NO:4 (protein, listed as Solanum tuberosum) MTFRSSLPLDLREISTTNHQVGILSSSPLPSPGTNTNNINHTRGLGASSSFSISNGMILGSKYLKVAQDLLDEVVNVGKNIKLSDGLESGAKEKHKLDNELISLASDDVESSSQKNSGVELTTAQRQELQMKKAKLVSMLDEVDQRYRQYHHQMQMIATSFEQTTGIGSSKSYTQLALHTISKQFRCLKDAISGQIKDTSKTLGEEENIGGKIEGSKLKFVDHHLRQQRALQQLGMMQTNAWKPQRGLPERAVSVLRAWLFEHFLHPYPKDSDKIILAKQTGLTRSQVSNWFINARVRLWKPMVEEMYMEEVKKNNQEQNIEPNNNEIVGSKSSVPQEKLPISSNIIHNASPNDISTSTISTSPTGGGGSIPTQTVAGFSFIRSLNMENIDDQRNNKKARNEMQNCSTSTILSMEREIINKVVQDETIKSEKFNNTQTRECYSLMTPNYTMDDQFGTRFNNQNHEQLATTTTFHQGNGHVSLTLGLPPNSENQHNYIGLENHYNQPTHHPNISYENIDFQSGKRYATQLLQDFVS	showed selective interaction
StBEL-29: BEL transcription factor from Solanum tuberosum, SEQ ID NO:12 (protein, listed as Solanum tuberosum) QGLSLSLSSSQQPGFGNFTAARELVSSPSGSASASGIQQQQQQQQSISSVPLSSKYMKAAQELLDEVVNVGKSMKSTNSTDVVVNNDVKKSKNMGDMDGQLDGVGADKDGAPTTELSTGERQEIQMKKAKLVNMLDEVEQRYRHYHHQMQSVIHWLEQAAGIGSAKTYTALALQTISKQFRCLKDAIIGQIRSASQTLGEEDSLGGKIEGSRLKFVDNQLRQQRALQQLGMIQHNAWRPQRGLPERAVSVLRAWLFEHFLHPYPKDSDKMMLAKQTGLTRSQVSNWFINARVRLWKPMVEEMYLEEIKEHEQNGLGQEKTSKLGEQNEDSTTSRSIATQDKSPGSDSQNKSFVSKQDNHLPQHNPASPMPDVQRHFHTPIGMTIRNQSAGFNLIGSPEIESINITQGSPKKPRNNEMLHSPNSIPSINMDVKPNEEQMSMKFGDDRQDRDGFSLMGGPMNFMGGFGAYPIGEIARFSTEQFSAPYSTSGTVSLTLGLPHNENLSMSATHHSFLPIPTQNIQIGSEPNHEFGSLNTPTSAHSTSSVYETFNIQNRKRFAAPLLPDFVA	showed selective interaction
StBEL-22: BEL transcription factor from Solanum tuberosum, SEQ ID NO:10 (protein, listed as Solanum tuberosum) TSVYETAGLLSEMFNFQTTSTAATELLQNQLSNNYRHPNQQPHHQPPTREWFGNRQEIVVGGSLQVTFGDTKDDVNAKVLLSNRDSVTDYYQRQHNQVPSINTAESMQLFLMNPQPSSPSQSTPSTLHQGFSSPVGGHFSQFMCGGASTSSNPIGGVNVIDQGQGLSLSLSSTLQHLEASKVEDLRMNSGGEMLFFNQESQNHHNIGFGSSLGLVNVLRNSKYVKATQELLEEFCCVGKGQLFKKINKVSRNNNTSTSPIINPSGSNNNNSSSSKAIIPPNLSTAERLDHQRRKVKLLSMLDEVEKRYNHYCEQMQMVVNSFDLVMGFGAAVPYTALAQKAMSRHFKCLKDGVAAQLKKTCEALGEKDASSSSGLTKGETPRLKVLEQSLRQQRAFQQMGMMEQEAWRPQRGLPERSVNILRAWLFEHFLHPYPSDADKHLLARQTGLSRNQVANWFINARVRLWKPMVEEMYQREVNEDDVDDMQENQNSTNTQIPTPNIIITTNSNITETKSAATATIASDKKPQINVSEIDPSIVAMNTHYSSSMPTQLTNFPTIQDESDHILYRRSGAEYGTTNMASNSEIGSNMITFGTTTASDVSLTLGLRHAGNLPENTHFSG	showed selective interaction
StBEL-14: BEL transcription factor from Solanum tuberosum, SEQ ID NO:8 (protein, listed as Solanum tuberosum) MVNHQLQNFETNPEMYNLSSTTSSMDQMIGFPPNNNNPHHVLWKGNFPNKINGVDDDDHGPSSSKNIISEQFYQHGSHENMLTTTTTHHDDHQGSWHHDNNRTLLVDDPSMRCVFPCEGNERPSHGLSLSLCSSNPSSIGLQSFELRHQDLQQGLIHDGFLGKSTNIQQGYFHHHHQVRDSKYLGPAQELLSEFCSLGIKKNNDHSSSKVLLKQHESTASTSKKQLLQSLDLLELQKRKTKLLQMLEEVDRRYKHYCDQMKAVVSSFEAVAGNGAATVYSALASRAMSRHFRCLRDGIVAQIKATKMAMGEKDSTSTLIPGSTRGETPRLRLLDQTLRQQKAFQQMNMMETHPWRPQRGLPERSVSVLRAWLFEHFLHPYPSDVDKHILARQTGLSRSQVSNWFINARVRLWKPMVEEMYLEETKEEENVGSPDGSKALIDDMTIHQSHIDHHQADQKPNLVRIDSECISSIINHQPHEKNDQNYGVIRGGDQSFGAIELDFSTNIAYGTSGGDHHHHGGGVSLTLGLQQHGGSGGSSMGLTTFSSQPSHNQSSLFYPRDDDQVQYSSLLDSENQNLPYRNLDGGTTSS	showed selective interaction
